Measurements as given in patent US20220227830A1, “QD DOSING OF GIP RECEPTOR AGONIST PEPTIDE COMPOUNDS AND USES THEREOF” (Takeda Pharmaceutical Company Limited, priority 2020, published 2022).
Starred links: 1 amine or outer side, 2 acyl side, 3 side chain; linkers in the order of their positions; H or OH if unused. Non-standard residues stand in square brackets, D forms with d. Groups on a side chain read outwards from the residue. No end group written: not given here. *: point of attachment. G2E3 = linker of 2 Gly and 3 Glu (read GGEEE); C15 diacid = O=C(O)CCCCCCCCCCCCCC(=O)*; γGlu = O=C(O)[C@H](CCC(=O)[*:2])N[*:1]; NMeY = CN[C@@H](Cc1ccc(O)cc1)C(=O)O; AEEA = NCCOCCOCC(=O)O; Aib = CC(C)(N)C(=O)O

T1: full-length human GIPR with an N-terminal FLAG tag, overexpressed on HEK-293T cells (human, UniProt P48546 22-466)
T1 sequence (looked up): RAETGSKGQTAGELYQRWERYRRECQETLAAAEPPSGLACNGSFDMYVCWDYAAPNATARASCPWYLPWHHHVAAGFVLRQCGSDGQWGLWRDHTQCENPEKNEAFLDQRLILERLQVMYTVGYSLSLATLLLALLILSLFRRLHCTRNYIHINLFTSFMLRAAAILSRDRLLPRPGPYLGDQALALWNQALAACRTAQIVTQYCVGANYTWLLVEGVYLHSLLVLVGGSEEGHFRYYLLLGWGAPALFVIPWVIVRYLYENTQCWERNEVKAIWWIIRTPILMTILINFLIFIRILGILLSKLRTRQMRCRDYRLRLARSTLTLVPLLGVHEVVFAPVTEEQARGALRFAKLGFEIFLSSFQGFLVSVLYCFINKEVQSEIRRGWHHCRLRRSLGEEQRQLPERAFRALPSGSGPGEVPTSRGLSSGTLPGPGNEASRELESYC

T2: full-length human GIPR with an N-terminal FLAG tag (human, UniProt P48546 22-466)
T2 sequence (looked up): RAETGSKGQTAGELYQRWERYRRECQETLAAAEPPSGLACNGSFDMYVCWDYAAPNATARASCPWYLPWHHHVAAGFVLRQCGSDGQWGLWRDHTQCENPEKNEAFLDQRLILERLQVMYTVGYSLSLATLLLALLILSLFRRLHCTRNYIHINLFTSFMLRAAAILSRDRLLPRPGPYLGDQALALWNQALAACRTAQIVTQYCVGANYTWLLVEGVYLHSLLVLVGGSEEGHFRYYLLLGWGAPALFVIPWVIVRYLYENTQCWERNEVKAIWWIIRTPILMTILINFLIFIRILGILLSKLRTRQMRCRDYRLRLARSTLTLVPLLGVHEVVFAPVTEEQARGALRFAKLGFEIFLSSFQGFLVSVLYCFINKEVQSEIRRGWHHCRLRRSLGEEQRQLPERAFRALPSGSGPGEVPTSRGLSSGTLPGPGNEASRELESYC

B1: Compound 191 (peptide)
peptide: YXEGTFTSDYSIYLDKQAAXEFVNWLLAGGPSSGAPPPSX
modifications: not fully specified; no N-terminal group printed; Aib at 2, 20; Km = Lys(R) at 40, linker not given, lipid C16; C-terminal NH2
B2: Compound 44 (peptide)
peptide: [NMeY][Aib]EGTFISDYSIALDR[Aib]K([AEEA-γGlu-γGlu-γGlu-C15 diacid])Q[Aib]NFVNWLLAQK
modifications: not fully specified (N-terminus)
B3: Compound 41 (peptide)
peptide: Y[Aib]EGTFISDYSIALDR[Aib]AQ[Aib]NFVNWLLAQK([G2E3-C15 diacid])
modifications: not fully specified (residue 1, N-terminus); also: Me-Tyr methyl position not given here
B4: Compound 214 (peptide)
peptide: Me-Y[Aib]EGTFISDYSIALDR[Aib]AQ[Aib]KFVNWLLAQKG-OH
modifications: not fully specified (residues 1, 21)
B5: Compound 39 (peptide)
peptide: [NMeY][Aib]EGTFISDYSIAK([AEEA-γGlu-γGlu-γGlu-C15 diacid])DR[Aib]AQ[Aib]NFVNWLLA[Aib]K-OH
modifications: not fully specified
B6: Compound 160 (peptide)
peptide: YXEGTFISDYSIAXDRXAQXNFVNWLLAQSG
modifications: N-terminal Me (Me-Tyr1); Aib at 2, 17, 20; Km = Lys(R) at 14, linker printed GS (read as G5 = GGGGG), lipid C15DA (C15 diacid); C-terminal OH
B7: Compound 168 (peptide)
peptide: YXEGTFISDYSIALDRXAQXDFVNWLLAQSG
modifications: N-terminal Me (Me-Tyr1); Aib at 2, 20; Km = Lys(R) at 17, linker printed GS (read as G5 = GGGGG), lipid C15DA (C15 diacid); C-terminal OH
B8: Compound 208 (peptide)
peptide: Me-Y[Aib]EGTFISDYSI[Aib]LDR[Aib]AQ[Aib]KFVNWLLAQRG-OH
modifications: not fully specified (residues 1, 21)
B9: Compound 47 (peptide)
peptide: [NMeY][Aib]EGTFISDYSIALDRK([AEEA-AEEA-γGlu-C15 diacid])HQ[Aib]NFVNWLLAQRPSSGAPPPS-OH
modifications: also: Me-Tyr methyl position not given here
B10: Compound 207 (peptide)
peptide: Me-Y[Aib]EGTFISDYSI[Aib]LDR[Aib]AQ[Aib]K([2OEG-γGlu-γGlu-C15 diacid])FVNWLLAQRG-OH
B11: Compound 43 (peptide)
peptide: Y[Aib]EGTFISDYSIALDR[Aib]AQ[Aib]NFVNWLLAQK([AEEA-γGlu-γGlu-γGlu-C15 diacid])
modifications: not fully specified (residue 1, N-terminus); also: Me-Tyr methyl position not given here
B12: Compound 42 (peptide)
peptide: [NMeY][Aib]EGTFISDYSIALDR[Aib]K([G2E3-C15 diacid])Q[Aib]NFVNWLLAQK-OH
modifications: not fully specified (N-terminus)
B13: Compound 169 (peptide)
peptide: Me-Y[Aib]EGTFISDYSIALDR[Aib]KQ[Aib]DFVNWLLAQRG-OH
modifications: not fully specified (residues 1, 18)
B14: Compound 204 (peptide)
peptide: Me-Y[Aib]EGTFISDYSIALDR[Aib]AQ[Aib]KFVNWLLAQKG-OH
modifications: not fully specified (residues 1, 21)
B15: Compound 45 (peptide)
peptide: [NMeY][Aib]EGTFISDYSIALDR[Aib]AQ[Aib]K([AEEA-γGlu-γGlu-γGlu-C15 diacid])FVNWLLA[Aib]K-OH
modifications: not fully specified
B16: Compound 164 (peptide)
peptide: YXEGTFISDYSIALDRXAQXNFVNWLLAQSPSSGAPPPS
modifications: N-terminal Me (Me-Tyr1); Aib at 2, 20; Km = Lys(R) at 17, linker printed GS (read as G5 = GGGGG), lipid C15DA (C15 diacid); C-terminal NH2
B17: Compound 167 (peptide)
peptide: YXEGTFISDYSIALDRXAQXDFVNWLLAQSPSSGAPPPS
modifications: N-terminal Me (Me-Tyr1); Aib at 2, 20; Km = Lys(R) at 17, linker printed GS (read as G5 = GGGGG), lipid C15DA (C15 diacid); C-terminal NH2
B18: Compound 166 (peptide)
peptide: YXEGTFISDYSIALDRXAQXDFVNWLLAQSPSSGAPPPS
modifications: N-terminal Me (Me-Tyr1); Aib at 2, 20; Km = Lys(R) at 17, linker printed GS (read as G5 = GGGGG), lipid C15DA (C15 diacid); C-terminal OH
B19: Compound 165 (peptide)
peptide: YXEGTFISDYSIALDRXAQXDFVNWLLAQRPSSGAPPPS
modifications: N-terminal Me (Me-Tyr1); Aib at 2, 20; Km = Lys(R) at 17, linker printed GS (read as G5 = GGGGG), lipid C15DA (C15 diacid); C-terminal OH
B20: Compound 163 (peptide)
peptide: Me-Y[Aib]EGTFISDYSIALDR[Aib]K([AEEA-AEEA-γGlu-γGlu-C15 diacid])Q[Aib]DFVNWLLAQSG-OH
B21: Compound 46 (peptide)
peptide: [NMeY][Aib]EGTFTSDYSIYK([AEEA-AEEA-γGlu-C15 diacid])DR[Aib]AQ[Aib]NFVNWLLAQRPSSGAPPPS-OH
modifications: not fully specified
B22: Compound 40 (peptide)
peptide: [NMeY][Aib]EGTFISDYSIALDR[Aib]AQ[Aib]K([AEEA-γGlu-γGlu-γGlu-C15 diacid])FVNWLL[Aib]QK-OH
modifications: not fully specified
B23: Compound 157 (peptide)
peptide: YXEGTFISDYSIAXDRXAQXDFVNWLLAQSPSSGAPG
modifications: N-terminal Me (Me-Tyr1); Aib at 2, 17, 20; Km = Lys(R) at 14, linker printed GS (read as G5 = GGGGG), lipid C15DA (C15 diacid); C-terminal OH
B24: Compound 159 (peptide)
peptide: YXEGTFISDYSIAXDRXAQXDFVNWLLAQSPG
modifications: N-terminal Me (Me-Tyr1); Aib at 2, 17, 20; Km = Lys(R) at 14, linker printed GS (read as G5 = GGGGG), lipid C15DA (C15 diacid); C-terminal OH
B25: Compound 162 (peptide)
peptide: Me-Y[Aib]EGTFISDYSIALDR[Aib]K([AEEA-AEEA-γGlu-γGlu-C15 diacid])Q[Aib]DFVNWLLAQRG-OH
B26: Compound 158 (peptide)
peptide: YXEGTFISDYSIAXDRXAQXDFVNWLLAQSPSSG
modifications: N-terminal Me (Me-Tyr1); Aib at 2, 17, 20; Km = Lys(R) at 14, linker printed GS (read as G5 = GGGGG), lipid C15DA (C15 diacid); C-terminal OH
B27: Compound 161 (peptide)
peptide: Me-Y[Aib]EGTFISDYSIALDR[Aib]K([AEEA-AEEA-γGlu-γGlu-C15 diacid])Q[Aib]NFVNWLLAQSG-OH

Legend:
Test in all cases: cell-based or functional assay
[1] = target: T1, full-length human GIPR with an …
[2] = target: T2, full-length human GIPR with an …
[3] = target: full-length human GLP-1R with an N-terminal FLAG tag (human, UniProt P43220 24-463)
[4] = target: full-length human GLP-1R with an N-terminal FLAG tag, overexpressed on HEK-293T cells (human, UniProt P43220 24-463)

Row | Binder | Human GIPR cAMP, HEK293T EC50 [1] [nM] | Human GIPR cAMP, HEK293T EC50 [2] [nM] | Human GLP1R cAMP HEK293T EC50 [3] [nM] | Human GLP1R cAMP HEK293T EC50 [4] [nM]
1 | B1 | 0.0049 |  |  | 
2 | B2 |  | 0.0004 | 631 | 
3 | B3 |  | 0.0004 | 112 | 
4 | B4 | 0.0003 |  |  | 
5 | B5 |  | 0.0005 | 398 | 
6 | B6 | 0.0003 |  |  | 24
7 | B7 | 0.0003 |  |  | 17.4
8 | B8 | 0.0003 |  |  | 
9 | B9 |  | 0.0003 | 110 | 
10 | B10 | 0.0004 |  |  | 
11 | B11 |  | 0.0003 | 174 | 
12 | B12 |  | 0.0006 | 237 | 
13 | B13 | 0.0006 |  |  | > 1000
14 | B14 | 0.0008 |  |  | 
15 | B15 |  | 0.0003 | 48.4 | 
16 | B16 | 0.0002 |  |  | 9.77
17 | B17 | 0.0004 |  |  | 41.7
18 | B18 | 0.0004 |  |  | 89.1
19 | B19 | 0.0004 |  |  | 85.1
20 | B20 | 0.0003 |  |  | > 1000
21 | B21 |  | 0.0002 | 0.144 | 
22 | B22 |  | 0.0008 | 115 | 
23 | B23 | 0.0001 |  |  | 347
24 | B24 | 0.0002 |  |  | 145
25 | B25 | 0.0002 |  |  | 513
26 | B26 | 0.0002 |  |  | 245
27 | B27 | 0.0003 |  |  | > 1000
